US11898183B2, “Programmed microorganisms to attenuate a disease” (priority 2020, dated 2024)

B1: HCTC3H Coffea canephora: hydroxycinnamoyl-CoA:quinate hydroxycinnamoyltransferase p-coumaroyl quinate 3′-hydroxylase fusion (HCTC3H), Coffea canephora (protein, listed as Coffea canephora)
chain: MKIEVKESTMVRPAQETPGRNLWNSNVDLVVPNFHTPSVYFYRPTGSSNFFDAKVLKDALSRALVPFYPMAGRLKRDEDGRIEIECNGEGVLFVEAESDGVVDDFGDFAPTLELRRLIPAVDYSQGISSYALLVLQVTYFKCGGVSLGVGMRHHAADGFSGLHFINSWSDMARGLDVTLPPFIDRTLLRARDPPQPQFQHIEYQPPPALKVSPQTAKSDSVPETAVSIFKLTREQISALKAKSKEDGNTISYSSYEMLAGHVWRCACKARGLEVDQGTKLYIATDGRARLRPSLPPGYFGNVIFTATPIAIAGDLEFKPVWYAASKIHDALARMDNDYLRSALDYLELQPDLKALVRGAHTFKCPNLGITSWVRLPIHDADFGWGRPIFMGPGGIAYEGLSFILPSPTNDGSMSVAISLQGEHMKLFQSFLYDIGGGGSGGGGSGGGGSMALLLILLPVAFIFLAYSLYERLRFKLPPGPRPKPVVGNIYDIKPVRFKCYAEWSKLYGPIFSVYFGSQLNTVVNTAELAKEVLKDNDQQLADRYRSRPSARMSRNGQDLIWADYGPHYVKVRKLCNLELFTPKRLEGLRPLREDEVTAMVDSIFKDCTKPENKGKSLLMRNYLGSVAFNNITRLTFGKRFMNSEGVVDEQGQEFKGIVSNGIRIGAKLSVADHIPWLRWMFVGENEDLDKHNARRDKLTRMIMEEHTLARQKSGNTKQHFVDALLTLQKQYELSDDTVIGLLWDMITAGMDTTTISVEWAMAELVKNPRVQQKAQEELDRVIGSDRIMTEADFAKLPYLQCVAKEALRLHPPTPLMLPHRANANVKIGGYDIPKGSIVHVNVWAIARDPAAWKNPLEFRPERFLEEDVDIKGHDYRLLPFGAGRRICPGAQLALNLVTSMLGHLLHHFTWSPPPGVRPEEIDLEESPGTVTYMRTPLQAVATPRLPAHLYNRVPVE
B2: C4H4CL Azospirillum sp.: Cinnamate 4 hydroxylase 4 coumarate coenzyme ligase fusion (C4H4CL), Azospirillum sp. (protein)
chain: MDLLLLEKTLLALFIAATIAITISKLRGKRFKLPPGPIPVPVFGNWLQVGDDLNHRNLTDLAKRFGDIFLLRMGQRNLVVVSSPELAKEVLHTQGVEFGSRTRNVVFDIFTGKGQDMVFTVYGTLAEMRRIMTVPFFTNKVVQQYRFGWEFEAQSVVDDVKKNPEACSSGIVLRRRLQLMMYNIMYRIMFDRRFESEEDPLFVKLKALNGERSRLAQSFEYNYGDFIPILRPFLKGYLKLCKEVKDRRLQLFKDYFVDERKKLGSTKSTTNEGLKCAIDHILDAQQKGEINDDNVLYIVENINVAAIETTLWSIEWGIAELVNHQKIQNKVREEIDRVLGPGHQVTEPDLQKLPYLQAVIKETLRLRMAIPLLVPHMNLHDAKLSGFDIPAESKILVNAWWLANNPAQWKKPEEFRPERFLEEESHVEANGNDFRYLPFGVGRRSCPGIILALPILGITLGRLVQNFELLPPPGQSKIDTAEKGGQFSLHILKHSTIVCKPRSFNGGGGSGGGGSGGGGSMTIQRWWRNRESLNRVLCDLLAGEFARLRPGGSPPAHPHRWPETLPLGPDGVGADSLDLLQLAAALNEALHLHRSGIEDYLLMHRTVGDWLDVCEAALGRFDGALSFRTSGSTGEGKRCEHPLAALEEEADALAALLSGGAEAPRRVVSVVPAHHIYGFLFTVLLPDRLAVPVVDGRGTSPGGLAARLGPGDLVVAHPDWWGALLRSGAALPDGVTGTSSTAPCPPDTARGVRGVGLARLVEVFGSSETAGLGWRESPDAPFRPFPWWRFGDDGRVTRRLADGTVLSATLQDRLSHDEEGFRPSGRLDTVVQVGGVNVSLAGVQAHLAGHPDVEAAAVRLMRPEEGTRLKAFIVPARTAPPREELYRRLTDWIEATLPAPHRPRALAFGPALPVNGMGKPCDWPLATCR
modifications: Depicts the nucleic acid sequence of Cinnamte 4 hydroxylase 4 coumarate coenzyme ligase fusion (C4H4CL) of Azospirillum sp.
B3: PAL Ganoderma sinense: Phenylalanine ammonia-lyase (PAL) from Ganoderma sinense (protein)
chain: MPGYTLTKTQSTSTFEPSPVTLKKAAVSSPLHAEPELPKQSSAPTLLHKFVEAHRALNNYKQGQPIVVDGQTLSIPAVAAVARYNADVVLDDSSDIQTRVLKSRQVIVDKVSSQKSVYGVSTGFGGSADTRTSDPLTLGLALFQHQHCGVLPSDTDSVPVALPLLDPLTSTSMPESWVRGAILIRMNSLIRGHSGVRWELIERMSALLRENIVPLVPLRGSISASGDLSPLSYIAGLLIGNPSIRVFDGPSTFRGRRIVSSREALSAHHIEPISLGSKEHLGILNGTAFSASVGALAVHEAVHLSLLGQVCTAMCTEAMLGAKGSFAPFIHSVARPHPGQVEVAETVTDLLEGSHFAVTAEEEKHISADIGELRQDRYPLRTSAQFLGPQVEDVLSAFAAITIECNSTTDNPLIDGETGEVHHGGNFQAMSVTNAMEKTRLAMHHIGKLLFAQCTELLNPSMNRGLPPNLAATDPSHNYFAKGVDIHAAAYVGELGYLANPVSTHVQSAEMHNQAVNSLALISARATLNSLEVLSILTSSFLYVLCQALDLRAMQHEFELEVDGILRQQLALSFGRHLSAADLDALFSVLSRHVRRSLETTSTMDAALRMRTVAAATTTPFVDFCAKRNTSLDLDEIVAFRAGLSEGMVGSLVRLREEYLRGSKGPAPAAKYLGRSRAVYEFVRVTLGIRMHGSENLHDFKEGPGVEDPTIGQDIALIHEAIRDGKMQDVVVGIFA
modifications: Ganoderma sinense
B4: UGT Cicer arietinum: Glycosyltransferase (UGT) from Cicer arietinum (protein, listed as Cicer arietinum)
chain: MKKIEVVFIPSPGVGHLISTLEFANLLINRNNRLNITVLVINFPKTVEKQTNYSLTESENLHVINLPQTTTHVPSTSDVGNSISALVETQKSNVKQAVSNLTGTLAAFVVDMFCTTMIDVANELGVPSLVFFTSGVAFLGLMLHLHTIWEQQDTELLLQQDELDIPSFANPVATNTLPTLVLRKEWESSFIKYGNGLKKASGIIVNSFHELEPHAVRSFLEDPTLRDLPIYPVGPILNPKSNVDSDDVIKWLDDQPPSSVVFLCFGSMGTFDEEQVREIALAIERSGVRFLWSLRKPQPQGTMVPPSDYTLSQMLEVLPEGFLDRTANIGRVIGWAPQVQVLAHQATGGFVSHCGWNSTLESIYYGVPIATWPLFAEQQTNAFELVRELKIAVEIALDYRLEFDIGRNYLLDADKIERGIRGVLDKDGEVRKKVKEMSQKSRNVLLEGGSSYTYLGQLIDYITNQV
B5: Glycosyltransferase (UGT) (SEQ ID NO: 42) Mates domestica (protein, listed as Malus domestica)
chain: MKKVELVFIPSPGAGHHLPTLQFVKRLIDRNDRISITILAIQSYFPTTLSSYTKSIAASEPRIRFIDVPQPQDRPPQEMYKSRAQIFSLYIESHVPSVKKIITNLVSSSANSSDSIRVAALVVDLFCVSMIDVAKELNIPSYLFLTSNAGYLAFMLHLPILHEKNQIAVEESDPDWSIPGIVHPVPPRVLPAALTDGRLSAYIKLASRFRETRGIIVNTFVELETHAITLFSNDDRVPPVYPVGPVIDLDDGQEHSNLDQAQRDKIIKWLDDQPQKSVVFLCFGSMGSFGAEQVKEIAVGLEQSGQRFLWSLRMPSPKGIVPSDCSNLEEVLPDGFLERTNGKKGLICGWAPQVEILAHSATGGFLSHCGWNSILESLWHGVPIATWPMYAEQQLNAFRMVRELGMALEMRLDYKAGSADVVGADEIEKAVVGVMEKDSEVRKKVEEMGKMARKAVKDGGSSFASVGRFIEDVIGQN
B6: CYP82D (SEQ ID NO: 40) Panax ginseng (protein)
chain: METFLAQLYSTTTIAALFVLLVLYYFSPWTRINKKNVAPEAGGGWPIIGHLHLLGGSKLPHLVFGSMADKYGPIFTVRLGVQRSLVVSSWEMVKDIFTTNDVIVSGRPKFLAAKHLSYNYAMFGFSPYGSFWLELRKITSLQLLSNRRLELLKHVRVSEMEISMRQLYKLWSEKKNGSGRVLMDMKKWFGELNLNVTFRMVAGKRYFGGGAASNDEEARRCRRVVREFFRLLGVVVVADSLPFLRWLDLGGYERAMKETAREMDSIVSVWLEEHRIKSDSSGDDANMEQDFMDVMLSAVKNVDLCGFDAHTVIKATCMVIISSGTDTTTVELTWALCLLLNNRHVLKKAQEELDNVVGKQRRVKESDLNNLIYLQAIVKETLRLYPAGQLGGQREFSDDCTVGGYHVPKRTRLVVNLWKLHRDPRIWSDPTEFRPERFLERHKEIDVKGQHFELIPFGAGRRVCPGITFGLQMFHLVLASLLHGFDISTPSDAPVDMAEGAGLTNAKITPLEILIAPRLSPSLYE
modifications: Panax ginseng

Tested on: pathway specific substrates
Test: Enzyme functionality of pathway enzyme homologs and fusion constructs in lysed E. coli cell extracts, product by HPLC
Type: biochemical, E. coli BL21
Conditions: lysed cell extract; for enzyme activity: protein expressed in E. coli, pathway specific substrate, HPLC; for Enzyme activity in terms of product formation (in %): recombinant E. coli BL21 clone
Method: As per one of the possible implementations of the present disclosure, two proteins—cinnamate-4-hydroxylate (C4H) and 4-coumaroyl CoA-ligase (4CL) were expressed as one fusion protein. Also, other two proteins which were expressed as one fusion protein were hydroxycinnamoyl-CoA quinate hydroxycinnamoyltransferase (HCT) and p-coumaroyl quinate 3′-hydroxylase (HCTC3H). The fusion gene and the corresponding fusion protein was prepared using the following method. […] The enzyme fusion constructs were made for the selected genes (Table 5). Pathway genes and the fusion constructs were individually cloned in E. coli expression vector pET28+ under T7 promoter and transformed in E. coli BL21 cells. Recombinant bacterial cells were induced with IPTG and enzyme functionality was tested with pathway specific substrates (Table 5) using lysed E. coli cell extracts. HPLC analysis was carried out to quantify the product formation and in turn shortlisting of efficient enzymes for functional pathway assembly towards Etoposide in E. coli.
The E. coli transformants were grown overnight at 37° C. in 1 ml of M9 minimal media containing ampicillin (100 mg/1), in 96-well format. The next day, 150 μl of each culture was inoculated into 3 ml M9 minimal media containing ampicillin (100 mg/1), IPTG 0.1 mM in 24-well format, and incubated at 30° C. and 200 rpm for ˜20 hours. The following day, cells were spun down and pellets were resuspended in 100 μl of lysis buffer containing 10 mM Tris-HCl pH 8, 5 mM MgCl2, 1 mM CaCl2) and complete mini protease inhibitor EDTA-free (3 tablets/100 ml) (Hoffmann-La Roche, Basel, Switzerland) and frozen at −80° C. for at least 15 minutes to promote cell lysis. Pellets were thawed at room temperature and 50 μl of DNase mix (1 μl of 1.4 mg/ml DNase in H2O (˜80000 u/ml), 1.2 μl of MgCl2 500 mM and 47.8 μl of 4×PBS buffer solution) was added to each well. Plates were shaken at 500 rpm for 5 min at room temperature to allow degradation of genomic DNA. Plates were spun down at 4000 rpm for 30 min at 4° C. and six μl of the lysates were used in in vitro using appropriate substrates for enzymes as per Table 6. In each case, the resulting compounds were measured by HPLC. Results were analysed in comparison with the lysates expressing the corresponding controls (the empty plasmid). […]

| Molecule | enzyme activity [%] | other results |
| --- | --- | --- |
| B1 | 89 |  |
| B2 | 97 |  |
| B3 | 98 |  |
| B4 | 97 |  |
| B5 |  | Enzyme activity in terms of product formation (in %) (substrate tested: Desmethylepipodophyllotoxin): 54% |
| B6 |  | Enzyme activity in terms of product formation (in %) (substrate tested: Deoxypodophyllotoxin): 93% |
